Laboratory results published in the supplement of paper PMC10567573.

B1: SLC35F2 (parent)
chain: QYLAERYKVNTPMLQSFINYCLLF
B2: FAM46C (parent)
chain: FDHLQNRLIATKNPEEIRGGGLLK

Variants of: B1
Experiment: protein stability index of a GFP-peptide fusion (GPS, HEK-293T) (PSI 1-6); higher = more stable
Settings: c terminus: a fixed tail appended
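Also: lentivirally expressed fusions sorted by FACS into six bins by GFP to DsRed ratio, PSI derived from sequencing read proportions per bin multiplied by bin number.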

Protein stability index, by site and new letter:
E5: L 2.72; A 3.18; M 4.24; H 3.1; P 2.34; N 2.62; Y 2.14; D 2.88; K 1.96; R 3.95; T 2.14; V 4.14; Q 2.72; C 3.78; S 2.14; W 2.54; F 3.74; I 3.06; G 2.03
Q1: F 2.37; T 2.71; W 2.68; M 2.43; D 3.23; L 2.23; Y 2.86; P 1.77; C 3.23; G 3.99; V 3.18; I 2.1; N 2.15; K 2.27; H 1.53; E 1.97; R 1.94; A 2.56; S 2.47
Y7: C 3.12; W 1.84; S 2.48; I 2.21; G 3.27; H 2.95; Q 3.26; L 2.35; R 1.55; P 2.98; D 2.49; E 2.03; V 2.92; A 3.17; M 1.62; K 2.53; N 2.89; T 2.19; F 2.18
R6: S 2.94; A 2.7; L 2.11; T 2.97; K 2.42; E 2.72; D 1.99; Q 2.34; W 2.51; H 3.38; P 3.62; G 2; Y 1.16; I 2.56; N 3.2; M 2.25; C 2.86; V 2.92
L3: C 2.93; Q 2.94; K 2.43; P 3.5; R 2.98; M 2.5; Y 2.34; N 2.71; T 2.7; H 2.5; G 2.92; F 3.46; D 3; A 3.3; E 1.45; I 3.32; S 2.5; V 2.34
Y2: R 2.1; K 2.17; H 1.89; I 1.68; C 2.17; Q 1.97; P 1.74; N 2.61; D 1.83; V 2.59; S 2.08; M 1.24; W 2.26; E 1.93; L 2.15; G 2.52; T 2.29; F 3.47; A 2.29
K8: L 2.87; P 2.35; E 2.04; D 2.44; F 3.46; M 2.75; H 2.64; G 2.38; A 2.54; C 3.39; N 2.22
A4: G 3.01; Y 2.38; S 3.11; Q 2.56; N 3.76; K 3.59; H 1.99; W 2.53; V 3.22; P 2.88; F 1.83; L 3.42; T 3.02; D 2.26; I 2.65; R 2.53; C 3.16; M 3.1; E 2.76

Variants of: B2
Experiment: as above
Settings: c terminus: a fixed tail appended

Protein stability index of substitutions, site by site:
G20: V 3.2; K 3.98; N 3.74; L 4.19; A 3.44; H 3.72; R 4.03; C 3.21; W 3.16; S 3.69; D 4.05; M 2.76; Q 2.42; I 3.11; P 3.6; T 3.51; F 2.77; Y 2.85
K24: A 2.94; T 3.45; V 2.29; S 2.9; N 3.52; G 3.52; W 1.95; Q 3.27; D 3.51; E 3.79; L 2.18; Y 1.93; F 2.2; R 3.35; M 3.11; H 3.07; C 2.28; I 1.96
R18: Y 3.58; C 4.44; W 2.58; D 4.42; A 3.75; I 3.32; N 3.83; S 3.77; E 4.67; M 3.03; T 3.2; L 3.39; Q 4.37; F 2.98; K 4.05; P 4.26; V 3.64
L22: F 2.76; Q 4.06; T 4.34; K 4.46; G 4.02; N 4.57; V 4.14; Y 3.78; A 4.86; E 4.3; D 4.71; H 4.2; P 4.2; R 3.98; I 4.01; C 3.78; M 4; S 4.32
I17: W 3.44; D 4.52; E 4.26; S 4.35; P 3.55; F 3.46; C 4.18; A 4.4; K 3.39; T 4.01; R 3.86; N 4.27; Y 3.58; M 3.82; H 4.28; Q 4.86
G21: N 4.51; M 3.25; A 3.69; C 3.29; Y 3.21; D 4; I 2.92; R 3.47; F 2.82; V 3.53; E 3.93; L 2.61; S 4.06; H 3.94; Q 3.41; K 4.26; W 2.28; T 4.07; P 3.91
E15: S 3.75; K 3.25; F 3.06; H 3.65; G 2.99; T 3.29; A 3.92; L 2.78; W 2.63; C 2.9; I 2.93; Q 2.53; N 3.95; Y 1.97; P 3.13; R 3.89; M 4.01; D 4.07
P14: G 4.2; M 3.66; V 3.25; L 3.87; N 4.12; K 3.77; W 2.59; Q 3.54; T 3.84; Y 3.2; D 3.87; S 3.49; I 2.39; R 4; F 2.97
G19: H 3.99; M 2.61; K 4.26; F 1.73; V 3.18; C 3.57; N 3.79; A 3.48; L 2.57; S 3.69; W 1.74; D 4.6; R 4.27; E 4.04; Y 3.25; T 4.01; I 3.18; P 3.29; Q 3.74
L23: H 4.73; F 3.36; I 4.02; R 4.29; D 4.65; K 5.07; Q 5.13; N 4.43; W 3.2; T 4.56; A 3.81; V 4.3; Y 2.99; M 4.55; E 4.17; S 3.93
E16: P 2.73; Q 3.58; G 2.93; L 2.9; V 3.61; N 3.67; I 3.9; S 3.48; C 2.85; R 3.47; W 2.5; T 3.79; Y 3.91; F 2.44; K 4.02; H 2.55; D 4.13; A 3.43
